Results reported in US20240100133A1, “ENZYMATICALLY INACTIVE GRANZYME A AND USES THEREFORE” (Saint Louis University, priority 2022, published 2024).

Tests used:
[1] = tested on: Connaught BCG within primary CD14+ human monocytes; type: cell-based
[2] = tested on: Mtb H37Rv within primary CD14+ human monocytes; type: cell-based, Mycobacterium tuberculosis
[3] = tested on: mycobacteria within iMac-WT mouse cells; type: cell-based; conditions: human GzmA on mouse iMac-WT cells
[4] = tested on: mycobacteria within iMac CD14KO cells; test: MGIA in iMac CD14KO cells; type: cell-based, mouse
[5] = tested on: mycobacteria within iMac TLR4KO cells; test: MGIA in iMac TLR4KO cells; type: cell-based, mouse
[6] = tested on: LAMP1 (phagolysosome fusion); test: Confocal microscopy colocalization of BCG-GFP and LAMP1; type: cell-based, human; conditions: compared with untreated controls
Protocol: (§1) Confocal microscopy and Stimulation Emission Depletion (STED) experiments. For confocal and STED microscopy experiments, cells were incubated on coverslips pre-treated with Cell-Tak (Corning #354240). At the time of fixation, cells were washed twice with 1×RT PBS, and then fixed in 4% paraformaldehyde for 15 min at 37° C. Slides were washed thrice for 5 min at RT with 1×PBS, and then blocked with 5% donkey serum (Cat. #017-000-121, Jackson ImmunoResearch, West Grove, PA) with 0.25% Tween-20 (Cat. #P9416, Sigma, St. Louis, MO) and True Stain Fc blocker (added only during blocking step) (Cat. #426101, Biolegend, San Diego, CA). Cells were then incubated overnight at 4° C. with primary antibody anti-GzmA (Cat. #MAB29051, R&D, Minneapolis, MN) at 12.5 μg/mL in blocking buffer, anti-PDIA1 (Cat. #MAB4236, R&D, Minneapolis, MN) at 12.5 μg/mL in blocking buffer, anti-LAMP1 at 12.5 ug/ml (Cat. #MAB4800, R&D, Minneapolis, MN), or anti-ATPSH (Cat. #ab110275, Abcam, Cambridge, UK) at 5 μg/mL in blocking buffer. To remove unbound antibody, cells were washed four times with 1×PBS at RT, and then incubated in the dark for 2 h with secondary antibody conjugated with Alexa Fluor 594 (Cat. #715-545-150, Jackson Immunoresearch, West Grove, PA) at 1:100 or Atto 647N (Cat. #ASR3248, Abcepta, San Diego, Ca) at 1:100. […]

[7] = thawed aliquots tested up to a week after thawing
[8] = tested on: Protein Disulfide Isomerase A1 (PDIA1); conditions: human monocytes infected and treated with GzmA; cited from earlier work
[9] = tested on: human monocytes infected with BCG-GFP; test: Phagocytic score, BCG-GFP uptake by monocytes; conditions: 2 h of infection with BCG-GFP
Protocol: Monocytes were treated or not with GzmA, after which BCG-GFP was used to infect cells for 2 hours. Cells were then washed twice with FACS buffer and processed by flow cytometry. The phagocytic score was measured as previously described (Ackerman et al., 2011).

[10] = tested on: BCG-GFP in human monocytes; test: BCG-GFP protection experiments and kinetics by flow cytometry
Protocol: Following treatment with GzmA and infection with mycobacteria, monocytes were first blocked with True Stain Fc blocker (Cat. #426101, Biolegend, San Diego, CA), and then permeabilized using permeabilization solution (Cat. #554715, BD Biosciences, San Diego, CA). Next, cells were incubated with anti-GzmA antibody conjugated with PE (Cat. #558904, BD Biosciences, San Diego, CA). A flow cytometer was then used to analyze BCG-GFP and GzmA-PE positive cells. FlowJo software was used for analysis.

[11] = target: T1, PDIA1 (Homo sapiens, UniProt P07237); test: STED microscopy colocalization of GzmA with PDIA1; type: cell-based; design: endogenous in cells; host or cells: primary human monocytes infected with mycobacteria; conditions: STED images, infected and treated human monocytes
Protocol: as §1
Target sequence in this assay (P07237 18-508): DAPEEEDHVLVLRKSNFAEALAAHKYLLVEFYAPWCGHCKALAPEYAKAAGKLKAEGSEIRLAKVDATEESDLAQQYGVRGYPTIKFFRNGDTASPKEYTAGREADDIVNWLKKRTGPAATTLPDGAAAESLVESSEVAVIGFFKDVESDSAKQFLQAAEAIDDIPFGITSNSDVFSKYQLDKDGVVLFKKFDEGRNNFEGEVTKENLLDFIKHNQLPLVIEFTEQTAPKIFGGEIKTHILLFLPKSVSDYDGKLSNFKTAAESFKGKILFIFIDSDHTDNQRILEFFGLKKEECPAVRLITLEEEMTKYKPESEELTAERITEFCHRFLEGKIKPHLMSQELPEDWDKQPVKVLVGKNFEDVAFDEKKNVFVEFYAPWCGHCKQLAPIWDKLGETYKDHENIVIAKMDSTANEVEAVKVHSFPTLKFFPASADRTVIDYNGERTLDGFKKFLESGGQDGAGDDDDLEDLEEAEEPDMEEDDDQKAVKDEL

[12] = target: T1, PDIA1; test: Incubation of GzmA-WT with recombinant PDIA1 (silver stain, anti-GzmA WB); type: biochemical; design: The cDNA of human PDIA1 (residues 18-479) was cloned into a pET-23 vector expression system; His-tag (N); made in house; host or cells: E. coli BL21(DE3); conditions: fresh PDIA1; not present with heat-inactivated PDIA1
Protocol: Expression and purification of human recombinant PDIA1. The cDNA of human PDIA1 (residues 18-479) was cloned into a pET-23 vector expression system. An N-terminal His-tag was engineered to facilitate purification. Sequence verified plasmids were transfected into BL21(DE3) cells. Cells were grown in LB medium until an OD600 of ˜0.6. Protein expression was induced with 0.5 mM IPTG. After overnight incubation at 37° C., cells were harvested by centrifugation. Soluble PDI protein was extracted by treating the cells with a nonionic detergent (B-PER, Thermo) followed by purification by affinity chromatography using a TALON resin as described before (Chinnaraj et al., 2021). Briefly, fractions eluted at 200 mM imidazole were pooled, dialyzed overnight in Tris 20 mM pH 7.4 145 mM NaCl to remove imidazole, and then loaded into size exclusion chromatography column 5200 10/300 (Cytiva) to isolate monomeric protein. Final protein concentrations were determined by measuring the absorbance at 280 nm, and using molar extinction coefficient of PDIA1 (i.e., 45755 M-lcm-1). Chemical identity was verified by mass spectrometry. Purify was >98%, as judged by SDS-PAGE.
Target sequence in this assay (P07237 18-479): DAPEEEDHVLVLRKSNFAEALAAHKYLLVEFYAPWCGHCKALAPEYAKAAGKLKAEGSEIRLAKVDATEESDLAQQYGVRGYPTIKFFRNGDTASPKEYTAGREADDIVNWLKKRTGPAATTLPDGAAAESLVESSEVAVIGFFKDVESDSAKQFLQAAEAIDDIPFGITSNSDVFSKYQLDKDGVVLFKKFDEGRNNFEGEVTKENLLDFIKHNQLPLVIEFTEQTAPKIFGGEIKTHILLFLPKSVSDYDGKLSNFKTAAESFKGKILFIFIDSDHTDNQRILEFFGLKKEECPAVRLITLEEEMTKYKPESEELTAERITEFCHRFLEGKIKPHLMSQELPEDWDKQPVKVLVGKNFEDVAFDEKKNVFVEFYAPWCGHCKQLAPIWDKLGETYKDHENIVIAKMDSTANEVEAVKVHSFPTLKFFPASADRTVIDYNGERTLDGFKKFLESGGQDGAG

B1: GzmA-WT: recombinant wild-type human Granzyme A, homodimeric serine protease, purified from HEK293T supernatants (protein)
chain: IIGGNEVTPHSRPYMVLLSLDRKTICAGALIAKDWVLTAAHCNLNKRSQVILGAHSITREEPTKQIMLVKKEFPYPCYDPATREGDLKLLQLMEKAKINKYVTILHLPKKGDDVKPGTMCQVAGWGRTHNSASWSDTLREVNITIIDRKVCNDRNHYNFNPVIGMNMVCAGSLRGGRDSCNGDSGSPLLCEGVFRGVTSFGLENKCGDPRGPGVYILLSKKHLNWIIMTIKGAV
modifications: left off: small tags and cut ends
notes: recombinant wild-type human Granzyme A, homodimeric serine protease, purified from HEK293T supernatants
GzmA inhibitory activity after CD14 neutralization (MGIA) [1]: lost their inhibitory activity
GzmA inhibitory activity after TLR2 neutralization (MGIA) [1]: does not reverse
GzmA inhibitory activity after TLR4 neutralization (MGIA) [1]: reversed GzmA-mediated mycobacterial growth inhibition
intracellular replication of pre-opsonized mycobacteria (excess protein removed) [1]: reduced intracellular replication capacity
mycobacterial growth inhibition, GzmA added prior to or during infection [1]: maximal inhibitory effects
mycobacterial growth inhibition, GzmA added to already infected cells [1]: did not mediate inhibition
inhibition of intracellular mycobacterial replication (MGIA) ([1]; 72 h): inhibits the intracellular replication of mycobacteria
inhibition of intracellular Mtb (MGIA) ([2]; 200 nM GzmA, Mtb MOI 1, human monocytes): inhibited Mtb
GzmA inhibitory activity after CD14 neutralization, Mtb ([2]; Mtb-infected monocytes, anti-CD14): reversed GzmA-mediated mycobacterial growth inhibition
GzmA inhibitory activity after TLR4 neutralization, Mtb ([2]; Mtb-infected monocytes, anti-TLR4): reversed GzmA-mediated mycobacterial growth inhibition
inhibition of mycobacterial growth in iMac-WT cells [3]: modestly inhibit mycobacterial growth
inhibition of intracellular mycobacterial growth in CD14-deficient iMac cells [4]: incapable of inhibiting intracellular mycobacterial growth
inhibition of intracellular mycobacterial growth in TLR4-deficient iMac cells [5]: incapable of inhibiting intracellular mycobacterial growth
colocalization between LAMP1 and BCG-GFP [6]: greater degree of colocalization
stability at 4° C. (retention of substrate activity) [7]: continued to retain its activity
PDIA1 upregulation compared to control [8]: 90%
phagocytic score [9]: higher phagocytic score compared to untreated cells
uptake and persistence of bacteria in treated cells with detectable GzmA ([10]; GzmA detected in treated monocytes): least uptake and persistence of bacteria
mycobacterial growth in treated cells without sufficient internalization of protein (GzmA-) ([10]; GzmA- cells, over 18 h): reduced mycobacterial growth over time
reduction in mycobacterial growth AUC ([10]; cells treated and staining positive for GzmA, over 18 h): 78%
degree of co-localization between GzmA and PDIA1 [11]: 75%
conversion of homodimer by PDIA1 [12]: monomeric band at 27 KDa
